Measured values as given in article PMC10787639 (Frontiers in Molecular Biosciences, 2023).
Blank lines part the entries; values can stand above or below the molecule they belong to.

Tests used:
[1] = target: Chaetomium thermophilum PCNA (proliferating cell nuclear antigen) (Chaetomium thermophilum); test: crystal structure; Ct PCNA (14 mg/mL) mixed with Ct PolD3 PIP peptide (8 mg/mL in dH2O); crystals in 0.1 M phosphate/citrate pH 4.2, 40% PEG 300; space group P1, one PCNA trimer in the asymmetric unit; 2.45 A; the peptide occupies a single PIP binding site, the others occluded by crystal packing
[2] = format: physicochemical; conditions: lyophilised peptide; resuspended in DMSO at 8 mg/mL (4.8 mM) instead
From the text: A 15mer Ct PolD3 PIP peptide spanning residues 437–451 (sequence: ^437GKGGQGSIMSWFAKK^451) and a 15mer Ct Fen1 peptide spanning residues 339–353 (^339GAQQARIEGFFKVIP^353) were commercially synthesised (GenScript, Piscataway, New Jersey, United States) and obtained in lyophilised form at final purities of 99.4% and 99.1%, respectively.

[3] = target: PolD3/p66 (Homo sapiens) (UniProt Q15054); test: ITC; conditions: cited from earlier work
Sequence of UniProt Q15054 (Q15054 2-466): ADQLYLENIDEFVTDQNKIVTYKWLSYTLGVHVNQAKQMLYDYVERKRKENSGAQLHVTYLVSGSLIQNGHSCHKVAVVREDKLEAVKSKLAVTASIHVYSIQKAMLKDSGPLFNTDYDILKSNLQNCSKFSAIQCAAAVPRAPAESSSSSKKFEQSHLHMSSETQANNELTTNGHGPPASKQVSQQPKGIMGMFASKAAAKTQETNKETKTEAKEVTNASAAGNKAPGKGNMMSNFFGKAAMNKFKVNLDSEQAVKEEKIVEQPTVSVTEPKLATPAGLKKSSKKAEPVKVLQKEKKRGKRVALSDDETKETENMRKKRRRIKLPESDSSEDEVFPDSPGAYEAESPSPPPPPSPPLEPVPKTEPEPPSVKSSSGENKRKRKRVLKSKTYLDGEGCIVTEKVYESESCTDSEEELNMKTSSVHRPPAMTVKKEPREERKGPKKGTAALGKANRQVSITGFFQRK

[4] = target: PolD4 (Homo sapiens) (UniProt Q9HCU8); test: ITC; conditions: cited from earlier work
Sequence of UniProt Q9HCU8 (Q9HCU8 whole entry): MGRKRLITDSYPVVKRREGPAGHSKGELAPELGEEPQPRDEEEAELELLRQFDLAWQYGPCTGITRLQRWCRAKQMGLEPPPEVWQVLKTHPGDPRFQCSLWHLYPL

[5] = target: Chaetomium thermophilum PCNA (proliferating cell nuclear antigen) (Chaetomium thermophilum); test: ITC; 420 uM Ct PolD3 peptide injected into 300 uL of 32.7 uM Ct PCNA; 25°C; 50 mM Tris-HCl, 150 mM NaCl, pH 8.0; duplicate; single site model (1 peptide: 1 PCNA protomer)

Sequence of PCNA (P12004 whole entry): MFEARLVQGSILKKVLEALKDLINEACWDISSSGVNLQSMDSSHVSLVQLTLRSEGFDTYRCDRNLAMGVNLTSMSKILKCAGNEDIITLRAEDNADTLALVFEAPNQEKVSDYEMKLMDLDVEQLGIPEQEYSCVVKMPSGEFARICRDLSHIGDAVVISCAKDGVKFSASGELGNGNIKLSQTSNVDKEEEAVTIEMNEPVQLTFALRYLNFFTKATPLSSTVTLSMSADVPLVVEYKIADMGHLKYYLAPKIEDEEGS

stoichiometry N [1]: 3
Molecule: Chaetomium thermophilum PCNA (proliferating cell nuclear antigen) (natural protein)

Molecule: GAQQARIEGFFKVIP [Ct Fen1 PIP peptide, 15mer Ct Fen1 peptide spanning residues 339–353, commercially synthesised (GenScript), purity 99.1%]
solubility in aqueous solution [2]: insoluble in aqueous solution

Molecule: PCNA (from UniProt P12004)
Kd [3]: 16 µM | Kd [4]: 38 µM

Kd [5]: 43.2 µM | stoichiometry N (PIP peptide per PCNA protomer) [5]: 1
Molecule: GKGGQGSIMSWFAKK [Ct PolD3 PIP peptide (15mer, residues 437-451)]
